Publication PMC7591906, “pHLIP ICG for delineation of tumors and blood flow during fluorescence-guided surgery” (Scientific Reports, 2020)
Entries after “also recorded” stand apart in the source; their conditions may differ. Peptide text beside a SMILES is read from it. * marks the point of attachment. X1 = CC1(C)C(/C=C/C=C/C=C/C=C2/N(CCCCCC(=O)NCCN3C(=O)CC(*)C3=O)c3ccc4ccccc4c3C2(C)C)=[N+](CCCCS(=O)(=O)[O-])c2ccc3ccccc3c21

How the values were obtained:
[1] = Biodistribution, %ID/g estimated from tissue/organ homogenates; format: in vivo, BALB/c mice; details: BALB/c, mouse, small and large intestines, bone, skin, muscle, prostate, iv, 0.5 mg/kg; all time points; estimate; read-out: Amount in small and large intestines, bone, skin and muscle (and prostate)
Procedure: The fluorescence signals in organs and tissue were also measured in the tissue/organ homogenates and compared with the signals from the control tissue/organ homogenates (collected from control mice) mixed with known amounts of pHLIP ICG. Samples of about 100 mg of tissue were homogenized with 2.5x (about 250 µL) volumes of DMSO using BioMasher II disposable homogenizers (DiagnoCine, LLC). 30 µl of each homogenate was placed into a 384-well plate and imaged using an Odyssey IR scanner (Li-Cor Biosciences). Tissue homogenates of control mice mixed with known concentrations of pHLIP ICG were used to establish the calibration curve.

[2] = Kinetics of insertion into POPC liposomes (stopped-flow tryptophan fluorescence); format: physicochemical; details: pH drop from pH 8 to pH 5, Trp fluorescence, bi-exponential fit, about 15% of final adjustment
Procedure: POPC (1-palmitoyl-2-oleoyl-sn-glycero-3-phosphocholine, Avanti Polar Lipids, Inc.) liposomes were used in biophysical measurements to mimic cell membranes and investigate the pHLIP ICG interactions with lipid bilayers. Large unilamellar vesicles (LUVs) were prepared by extrusion. POPC dissolved in chloroform was desolvated in a rotary evaporator and placed under high vacuum for 2 hours to create a phospholipid film. Lipids were then rehydrated in phosphate buffer (pH8) and repeatedly extruded through membranes with a pore size of 100 nm to make LUVs.
To follow pHLIP ICG insertion into the lipid bilayer of POPC liposomes in real-time, kinetics measurements were performed using a SFM-300 mixing system (Bio-Logic Science Instruments) in combination with a MOS-450 spectrometer with its temperature control set to 25.0°C. pHLIP ICG pre-mixed with POPC liposomes in phosphate buffer at pH8 were mixed (5 ms dead time) with acid to drop the pH from pH8 to pH5 and promote pHLIP peptide insertion into the bilayers. The insertion process was monitored by recording changes of the tryptophan fluorescence of pHLIP peptide excited at 295 nm and using a cut off filter at 320 nm.

[3] = 7-day repeat i.v. toxicity in B6D2F1 mice (GLP); format: in vivo; details: 13.6 mg/kg/day i.v. for 7 days, incidence and severity decreasing over time
Procedure: The purpose of this GLP study performed at MSK was to assess the acute and delayed toxicity of a repeat administration of pHLIP ICG in mice. The pHLIP ICG was administered for 7 consecutive days.
Throughout the study, body weights, clinical signs, clinical pathology (hematology and clinical chemistry), and histopathology were collected.

[4] = tested on: human peripheral blood lymphocytes; test: In vitro mammalian cell micronucleus test; format: cell-based; details: up to 0.5 mg/mL
Procedure: The objective of this study performed at CRL was to determine the potential genotoxicity of pHLIP ICG using an in vitro mammalian cell micronucleus test in human peripheral blood lymphocytes.
Human peripheral blood lymphocytes were treated with pHLIP ICG at levels up to the standard limit of 0.5 mg/mL. […] The negative control results were within the laboratory negative historical control range. Lymphocytes were also incubated with standard positive controls, which caused statistically significant increases in the proportion of cells with micronuclei, confirming the sensitivity of the test system and the activity of the S9 mix. All criteria for a valid assay were therefore met.

Q: For `CC(C)C[C@H](NC(=O)[C@H](Cc1ccc(O)cc1)NC(=O)[C@H](C)NC(=O)[C@H](CCCNC(=N)N)NC(=O)[C@H](Cc1c[nH]c2ccccc12)NC(=O)[C@@H]1CCCN1C(=O)[C@H](CC(N)=O)NC(=O)[C@H](CCC(N)=O)NC(=O)[C@H](CC(=O)O)NC(=O)[C@H](CC(=O)O)NC(=O)[C@H](CSC1CC(=O)N(CCNC(=O)CCCCCN2/C(=C/C=C/C=C/C=C/C3=[N+](CCCCS(=O)(=O)[O-])c4ccc5ccccc5c4C3(C)C)C(C)(C)c3c2ccc2ccccc32)C1=O)NC(=O)[C@H](C)N)C(=O)N[C@@H](CC(=O)O)C(=O)N[C@@H](CC(C)C)C(=O)N[C@@H](CC(C)C)C(=O)N[C@@H](Cc1ccccc1)C(=O)N1CCC[C@H]1C(=O)N[C@H](C(=O)N[C@@H](CC(=O)O)C(=O)N[C@H](C(=O)N[C@@H](CC(C)C)C(=O)N[C@@H](CC(C)C)C(=O)N[C@@H](CC(C)C)C(=O)N[C@@H](CC(=O)O)C(=O)N[C@@H](CC(C)C)C(=O)N[C@@H](CC(C)C)C(=O)N[C@@H](Cc1c[nH]c2ccccc12)C(=O)N[C@@H](C)C(=O)O)[C@@H](C)O)[C@@H](C)O` (some centres unmarked) [pHLIP ICG] (H-AC(X1)DDQNPWRAYLDLLFPTDTLLLDLLWA-OH), which tissue uptake [1] is on record?
A: The tissue uptake was under 2 %ID/g.

Q: And the “Rate of insertion into lipid bilayer, slow component” value [2]?
A: The value was 0.077 s⁻¹.

Q: And the Toxicity finding [3]?
A: Its Toxicity finding is “may be associated with germ cell degeneration in males”.

Q: And the “Cytotoxicity or precipitation in the assay” value [4]?
A: Its value is “no pHLIP ICG related cytotoxicity or precipitation was observed”.

Q: And the Induction of micronuclei ([4]; 4 h without/with S9, 24 h without S9)?
A: The Induction of micronuclei was “did not show any evidence of genotoxic activity; also recorded: negative for the induction of micronuclei”.
